Results on 37 molecules are retold here after patent publication US20230125550A1 (ARCELLX, published 2023).

T1: recombinant human CD123-Fc (human, UniProt P26951 19-305)
T1 construct: not shown: Fc part of CD123-Fc
T1 sequence: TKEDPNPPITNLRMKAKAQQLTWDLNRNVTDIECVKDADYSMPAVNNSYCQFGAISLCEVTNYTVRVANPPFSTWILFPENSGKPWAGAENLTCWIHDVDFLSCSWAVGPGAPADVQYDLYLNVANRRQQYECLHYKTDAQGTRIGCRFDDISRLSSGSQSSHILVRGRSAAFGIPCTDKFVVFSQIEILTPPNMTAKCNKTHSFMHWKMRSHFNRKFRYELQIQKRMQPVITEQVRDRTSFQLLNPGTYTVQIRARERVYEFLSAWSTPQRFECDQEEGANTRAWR

T2: AFP p26 (human, UniProt P02771 381-609)
T2 construct: The construct used is not described
T2 sequence: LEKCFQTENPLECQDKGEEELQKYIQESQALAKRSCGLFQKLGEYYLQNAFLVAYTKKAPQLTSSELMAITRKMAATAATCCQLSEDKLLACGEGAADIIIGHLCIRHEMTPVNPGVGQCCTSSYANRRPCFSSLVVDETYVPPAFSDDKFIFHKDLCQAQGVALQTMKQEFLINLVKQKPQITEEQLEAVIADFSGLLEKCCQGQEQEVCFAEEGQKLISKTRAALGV

B1: SEQ ID NO 635 (designed binder)
chain: MGSWYEFYWRLEAIEERLWALGGSEAELAEFEKAIATFEDQLQTYKGKGNPEVEALETEALAIHAELEAYRHN
B2: SEQ ID NO 638 (designed binder)
chain: MGSWWEFEDRLWAIDRRLMALGGSEAELAVFEQMIAHFEQILQVYKGKGNPEVEALHFEAHAIGMELAAYRHN
B3: SEQ ID NO 634 (designed binder)
chain: MGSWHEFIWRLDAIEERLWALGGSEAELAWFETEIATFEAQLQDYKGKGNPEVEALEWEAIAIAWELDAYRHN
B4: SEQ ID NO 633 (designed binder)
chain: MGSWYEFWRRLDAIEERLWALGGSEAELAMFETDIAGFEWMLQLYKGKGNPEVEALEHEAWAINSELDAYRHN
B5: SEQ ID NO 631 (designed binder)
chain: MGSWVEFWDRLDAIEERLWALGGSEAELAEFEFMIAMFEQHLQEYKGKGNPEVEALIPEAGAIDKELTAYRHN
B6: SEQ ID NO 637 (designed binder)
chain: MGSWWEFEDRLWAIEQRLDALGGSEAELAVFENSIAKFEDMLQVYKGKGNPEVEALHEEADAIIWELYAYRHN
B7: SEQ ID NO 632 (designed binder)
chain: MGSWDEFDARLWAIEERLWALGGSEAELAEFEFMIAAFEDVLQEYKGKGNPEVEALMGEANAIVMELDAYRHN
B8: SEQ ID NO 628 (designed binder)
chain: MGSWWEFEQRLDAIETRLWALGGSEAELAYFEHIIADFEDELQIYKGKGNPEVEALGWEAFAIDGELTAYRHN
B9: SEQ ID NO 629 (designed binder)
chain: MGSWFEFPYRLEAIEERLYALGGSEAELAQFEQFIAWFEMDLQDYKGKGNPEVEALWFEANAIVEELDAYRHN
B10: SEQ ID NO 636 (designed binder)
chain: MGSWFEFQWRLEAIEDRLWALGGSEAELAEFETIIAGFEEQLQVYKGKGNPEVEALEEEAMAIQTELHAYRHN
B11: SEQ ID NO 630 (designed binder)
chain: MGSWVEFYDRLEAIEIRLWALGGSEAELADFESFIAHFEDDLQAYKGKGNPEVEALMDEANAIVFELDAYRHN
B12: SEQ ID NO 627 (designed binder)
chain: MGSWYEFEQRLGAIEERLWALGGSEAELAAFEDIIAYFEYQLQSYKGKGNPEVEALDEEAWAIDDELWAYRHN
B13: SEQ ID NO 868 (designed binder)
chain: MGSWIHFKNDLAVIKDELEALGGSEAELARFEIMIAWFEDALQWYKGKGNPEVEALRKEAAAIRDELQAYRHN
B14: SEQ ID NO 871 (designed binder)
chain: MGSWHSFKQDLAYIKYLLEALGGSEAELAQFEELIAFFEYYLQTYKGKGNPEVEALRKEAAAIRDELQAYRHN
B15: SEQ ID NO 850 (designed binder)
chain: MGSWIIFKTDLARIKNYLEALGGSEAELATFERDIAWFEFMLQIYKGKGNPEVEALRKEAAAIRDELQAYRHN
B16: SEQ ID NO 858 (designed binder)
chain: MGSWFTFKDDLAQIKNRLEALGGSEAELANFEMSIAWFEFMLQYYKGKGNPEVEALRKEAAAIRDELQAYRHN
B17: SEQ ID NO 857 (designed binder)
chain: MGSWYTFKGSLAEIKNRLEALGGSEAELAMFESDIAWFEFMLQFYKGKGNPEVEALRKEAAAIRDELQAYRHN
B18: SEQ ID NO 863 (designed binder)
chain: MGSWEIFKDDLASIKKVLEALGGSEAELALFESDIAWFELMLQYYKGKGNPEVEALRKEAAAIRDELQAYRHN
B19: SEQ ID NO 869 (designed binder)
chain: MGSWMVFKQDLAEIKANLEALGGSEAELADFEFAIAWFEYELQWYKGKGNPEVEALRKEAAAIRDELQAYRHN
B20: SEQ ID NO 872 (designed binder)
chain: MGSWVVFKSSLAQIKILLEALGGSEAELAIFEVKIAHFEQELQEYKGKGNPEVEALRKEAAAIRDELQAYRHN
B21: SEQ ID NO 873 (designed binder)
chain: MGSWDQFKNSLASIKRVLEALGGSEAELAIFEVKIAHFEHFLQQYKGKGNPEVEALRKEAAAIRDELQAYRHN
B22: SEQ ID NO 867 (designed binder)
chain: MGSWIAFKDHLAIIKQRLEALGGSEAELARFEFEIAWFEWMLQYYKGKGNPEVEALRKEAAAIRDELQAYRHN
B23: SEQ ID NO 849 (designed binder)
chain: MGSWVYFKHRLAEIKDQLEALGGSEAELAEFETDIAWFEWMLQYYKGKGNPEVEALRKEAAAIRDELQAYRHN
B24: SEQ ID NO 856 (designed binder)
chain: MGSWYYFKERLAAIKDRLEALGGSEAELAIFEADIAWFEFMLQYYKGKGNPEVEALRKEAAAIRDELQAYRHN
B25: SEQ ID NO 854 (designed binder)
chain: MGSWFVFKEDLAGIKFILEALGGSEAELAMFETDIAWFEYMLQYYKGKGNPEVEALRKEAAAIRDELQAYRHN
B26: SEQ ID NO 853 (designed binder)
chain: MGSWLAFKEDLAHIKSILEALGGSEAELAEFEHDIAWFEYMLQYYKGKGNPEVEALRKEAAAIRDELQAYRHN
B27: SEQ ID NO 874 (designed binder)
chain: MGSWNNFKSSLASIKQVLEALGGSEAELAVFELQIAHFERELQYYKGKGNPEVEALRKEAAAIRDELQAYRHN
B28: SEQ ID NO 870 (designed binder)
chain: MGSWKNFKLELALIKSKLEALGGSEAELAQFEADIAFFEWSLQWYKGKGNPEVEALRKEAAAIRDELQAYRHN
B29: SEQ ID NO 862 (designed binder)
chain: MGSWSIFKQDLADIKDSLEALGGSEAELAMFEMDIAWFEHTLQYYKGKGNPEVEALRKEAAAIRDELQAYRHN
B30: SEQ ID NO 865 (designed binder)
chain: MGSWSVFKDDLAQIKDRLEALGGSEAELAQFELDIAWFEYVLQFYKGKGNPEVEALRKEAAAIRDELQAYRHN
B31: SEQ ID NO 852 (designed binder)
chain: MGSWQIFKQDLAAIKDYLEALGGSEAELAIFEFDIAWFEHMLQWYKGKGNPEVEALRKEAAAIRDELQAYRHN
B32: SEQ ID NO 851 (designed binder)
chain: MGSWMHFKQDLAEIKGYLEALGGSEAELAIFEMDIAWFEYMLQYYKGKGNPEVEALRKEAAAIRDELQAYRHN
B33: SEQ ID NO 864 (designed binder)
chain: MGSWSIFKDDLAVIKERLEALGGSEAELAHFEQDIAWFEHLLQYYKGKGNPEVEALRKEAAAIRDELQAYRHN
B34: SEQ ID NO 860 (designed binder)
chain: MGSWVEFKRDLANIKQRLEALGGSEAELAQFEMQIAWFEHTLQYYKGKGNPEVEALRKEAAAIRDELQAYRHN
B35: SEQ ID NO 861 (designed binder)
chain: MGSWSYFKEDLANIKSSLEALGGSEAELAWFESSIAWFEHTLQYYKGKGNPEVEALRKEAAAIRDELQAYRHN
B36: SEQ ID NO 866 (designed binder)
chain: MGSWAVFKDSLAHIKDVLEALGGSEAELALFEMDIAWFEYVLQDYKGKGNPEVEALRKEAAAIRDELQAYRHN
B37: SEQ ID NO 859 (designed binder)
chain: MGSWVLFKQDLAMIKQRLEALGGSEAELAMFEYDIAWFEHMLQYYKGKGNPEVEALRKEAAAIRDELQAYRHN

In one assay the target is T1, recombinant human CD123-Fc. Description: phage ELISA, A450 target/A450 IgG1-Fc. The method, boiled down: (§1)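 The ELISA ratio divides target absorbance by IgG1-Fc absorbance and averages this over all screened wells holding a given clone. Phage came from phagemid colonies picked from panning output and were rescued with VCSM13 helper phage in 96-well format. After coating with 1.3 microg/ml goat anti-human IgG1-Fc antibody, wells were loaded with 5 nM recombinant human target or IgG1-Fc, then with 50 microl phage diluted 5× in ELISA blocking buffer, and bound phage were read at 450 nm using HRP-conjugated anti-M13 antibody.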
Background: In an ELISA, binding on a coated surface is turned into a signal by an enzyme label.
Turning to B1, the ELISA_avg was 3.7 ratio.

As for B2, the ELISA_avg amounted to 4.6 ratio.

In the case of B3, the ELISA_avg came to 3.3 ratio.

B4: the ELISA_avg is 3.6 ratio.

Take B5: the ELISA_avg turned out to be 10 ratio.

In the case of B6, the ELISA_avg was 4.4 ratio.

Regarding B7, the ELISA_avg came to 4.3 ratio.

As to B8, the ELISA_avg is 4.7 ratio.

On to B9, for which the ELISA_avg is 3.1 ratio.

Take B10: the ELISA_avg turned out to be 3.4 ratio.

For the molecule B11, the ELISA_avg was 4 ratio.

Turning to B12, the ELISA_avg turned out to be 10.6 ratio.

In a further assay the target is T2, AFP p26. The assay can be described thus: phage ELISA, A450 target/A450 IgG1-Fc. An outline of the steps: as §1
For the molecule B13, the ELISA_avg worked out at 17.9 ratio.

For the molecule B14, the ELISA_avg came to 25.6 ratio.

In turn, B15 had an ELISA_avg of 16.7 ratio.

With B16, the ELISA_avg amounted to 30.8 ratio.

For B17, the ELISA_avg is 32.3 ratio.

In turn, B18 displayed an ELISA_avg of 27.9 ratio.

In turn, B19 had an ELISA_avg of 17.8 ratio.

The molecule B20 yielded an ELISA_avg of 8.6 ratio.

Molecule B21 registered an ELISA_avg of 15.6 ratio.

In turn, B22 displayed an ELISA_avg of 29.9 ratio.

Turning to B23, the ELISA_avg worked out at 11.1 ratio.

In the case of B24, the ELISA_avg is 31.5 ratio.

For the molecule B25, the ELISA_avg is 14.2 ratio.

B26 showed an ELISA_avg of 18.6 ratio.

Consider B27, for which the ELISA_avg was 24.1 ratio.

Molecule B28 came in with an ELISA_avg of 20.6 ratio.

For B29, the ELISA_avg came to 16.6 ratio.

B30 came in with an ELISA_avg of 30.3 ratio.

On to B31, for which the ELISA_avg was 17.4 ratio.

Take B32: the ELISA_avg is 18.9 ratio.

B33 yielded an ELISA_avg of 25.6 ratio.

B34 came in with an ELISA_avg of 30.4 ratio.

Molecule B35 yielded an ELISA_avg of 11.6 ratio.

For B36, the ELISA_avg is 24.1 ratio.

Consider B37, for which the ELISA_avg worked out at 29.7 ratio.
